Reference: patent WO2012132067A1 (dated 2012)
Substitutions are numbered along the chain they refer to. Numbers in names are those of the source. One block for each binder: values may come before it.

Experiments:
human FcγRIa = molecular target: T1, human FcγRIa (human, UniProt P12314 16-292, limits assumed); assay: Biacore, Protein L capture, human FcγR injected, pH 7.4, 25 C (Table 13 not given)
T1 construct: also called hFcgRI; hFcγRIa

mouse FcγRIIb [1] = molecular target: T2, mouse FcγRIIb (mouse, UniProt P08101 30-210, limits assumed); assay: Biacore, Protein L capture, mouse FcγR injected, pH 7.4, 25 C (Table 7 not given); weaker than F21
T2 sequence (looked up): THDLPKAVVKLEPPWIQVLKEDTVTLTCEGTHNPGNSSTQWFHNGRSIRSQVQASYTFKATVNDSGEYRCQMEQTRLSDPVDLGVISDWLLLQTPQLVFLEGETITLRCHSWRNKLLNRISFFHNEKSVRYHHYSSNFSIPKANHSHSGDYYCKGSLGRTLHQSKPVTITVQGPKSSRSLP

mouse FcγRIII = molecular target: T3, mouse FcγRIII (mouse, UniProt P08508 31-215); assay: as above
T3 sequence (looked up): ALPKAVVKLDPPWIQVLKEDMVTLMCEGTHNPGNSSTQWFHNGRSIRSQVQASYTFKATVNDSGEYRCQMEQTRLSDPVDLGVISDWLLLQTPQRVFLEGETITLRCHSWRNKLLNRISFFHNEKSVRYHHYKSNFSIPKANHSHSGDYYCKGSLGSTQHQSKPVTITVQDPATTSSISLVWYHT

mouse FcγRIIb [2] = molecular target: T2, mouse FcγRIIb; assay: Biacore, Protein L capture, mouse FcγR injected, pH 7.4, 25 C (Table 7 not given); weaker than F157

T1 sequence (P12314 16-292 limits assumed): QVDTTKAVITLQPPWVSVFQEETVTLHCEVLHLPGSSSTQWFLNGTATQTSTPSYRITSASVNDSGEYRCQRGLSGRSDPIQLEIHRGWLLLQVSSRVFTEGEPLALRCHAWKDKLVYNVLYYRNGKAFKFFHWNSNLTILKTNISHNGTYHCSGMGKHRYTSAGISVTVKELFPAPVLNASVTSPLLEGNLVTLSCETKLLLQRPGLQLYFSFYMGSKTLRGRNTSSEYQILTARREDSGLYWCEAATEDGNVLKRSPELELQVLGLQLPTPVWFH

binding result (human FcγRIa): binds
binding result (mouse FcγRIIb [1]): binds
binding result (mouse FcγRIII): binds
B1: VH3/L(WT)-IgG1-F140 (antibody)
heavy: QVQLQESGPGLVKPSETLSLTCAVSGHSISHDHAWSWVRQPPGEGLEWIGFISYSGITNYNPSLQGRVTISRDNSKNTLYLQMNSLRAEDTAVYYCARSLARTTAMDYWGEGTLVTVSSASTKGPSVFPLAPSSKSTSGGTAALGCLVKDYFPEPVTVSWNSGALTSGVHTFPAVLQSSGLYSLSSVVTVPSSSLGTQTYICNVNHKPSNTKVDKKVEPKSCDKTHTCPPCPAPELLGGPKVFLFPPKPKDTLYISRTPEVTCVVVDVSHEDPEVKFNWYVDGVEVHNAKTKPREEQYNSTYRVVSVLTPLHQDWLNGKEYKCKVSNKALPAPIEKTISKAKGQPREPQVYTLPPSRDELTKNQVSLTCLVKGFYPSDIAVEWESNGQPENNYKTTPPVLDSDGSFFLYSKLTVDKSRWQQGNVFSCSVMHEALHYHYTQKSLSLSP
light: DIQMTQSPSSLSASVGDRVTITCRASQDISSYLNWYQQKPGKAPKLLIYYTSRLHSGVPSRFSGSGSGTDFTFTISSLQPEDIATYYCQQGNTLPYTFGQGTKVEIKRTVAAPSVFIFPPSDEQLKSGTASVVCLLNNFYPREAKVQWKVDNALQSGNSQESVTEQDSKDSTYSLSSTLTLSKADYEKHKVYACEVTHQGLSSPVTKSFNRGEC
notes: VH3-IgG1-F21 with S239K (EU); measured with L(WT)-CK; also called Fv4-IgG1-F140; copies: 2 + 2

binding result (mouse FcγRIIb [2]): binds
B2: VH3/L(WT)-IgG1-F424 (antibody)
heavy: B1 heavy with Y254M, P259A, M430L
light: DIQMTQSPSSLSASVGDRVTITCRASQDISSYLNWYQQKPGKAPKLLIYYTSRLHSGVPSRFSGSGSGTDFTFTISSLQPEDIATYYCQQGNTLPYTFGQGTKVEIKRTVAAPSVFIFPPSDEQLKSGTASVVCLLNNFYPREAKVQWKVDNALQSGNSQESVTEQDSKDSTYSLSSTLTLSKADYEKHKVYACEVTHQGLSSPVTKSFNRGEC
notes: VH3-IgG1-F157 with S239K (EU); measured with L(WT)-CK; also called Fv4-IgG1-F424; copies: 2 + 2
